Measurements reported in IntAct's records for PubMed 26900326.

B1: Molecular chaperone MKKS (Homo sapiens), Q9NPJ1 (parent)
chain: MSRLEAKKPSLCKSEPLTTERVRTTLSVLKRIVTSCYGPSGRLKQLHNGFGGYVCTTSQSSALLSHLLVTHPILKILTASIQNHVSSFSDCGLFTAILCCNLIENVQRLGLTPTTVIRLNKHLLSLCISYLKSETCGCRIPVDFSSTQILLCLVRSILTSKPACMLTRKETEHVSALILRAFLLTIPENAEGHIILGKSLIVPLKGQRVIDSTVLPGILIEMSEVQLMRLLPIKKSTALKVALFCTTLSGDTSDTGEGTVVVSYGVSLENAVLDQLLNLGRQLISDHVDLVLCQKVIHPSLKQFLNMHRIIAIDRIGVTLMEPLTKMTGTQPIGSLGSICPNSYGSVKDVCTAKFGSKHFFHLIPNEATICSLLLCNRNDTAWDELKLTCQTALHVLQLTLKEPWALLGGGCTETHLAAYIRHKTHNDPESILKDDECTQTELQLIAEAFCSALESVVGSLEHDGGEILTDMKYGHLWSVQADSPCVANWPDLLSQCGCGLYNSQEELNWSFLRSTRRPFVPQSCLPHEAVGSASNLTLDCLTAKLSGLQVAVETANLILDLSYVIEDKN
partner: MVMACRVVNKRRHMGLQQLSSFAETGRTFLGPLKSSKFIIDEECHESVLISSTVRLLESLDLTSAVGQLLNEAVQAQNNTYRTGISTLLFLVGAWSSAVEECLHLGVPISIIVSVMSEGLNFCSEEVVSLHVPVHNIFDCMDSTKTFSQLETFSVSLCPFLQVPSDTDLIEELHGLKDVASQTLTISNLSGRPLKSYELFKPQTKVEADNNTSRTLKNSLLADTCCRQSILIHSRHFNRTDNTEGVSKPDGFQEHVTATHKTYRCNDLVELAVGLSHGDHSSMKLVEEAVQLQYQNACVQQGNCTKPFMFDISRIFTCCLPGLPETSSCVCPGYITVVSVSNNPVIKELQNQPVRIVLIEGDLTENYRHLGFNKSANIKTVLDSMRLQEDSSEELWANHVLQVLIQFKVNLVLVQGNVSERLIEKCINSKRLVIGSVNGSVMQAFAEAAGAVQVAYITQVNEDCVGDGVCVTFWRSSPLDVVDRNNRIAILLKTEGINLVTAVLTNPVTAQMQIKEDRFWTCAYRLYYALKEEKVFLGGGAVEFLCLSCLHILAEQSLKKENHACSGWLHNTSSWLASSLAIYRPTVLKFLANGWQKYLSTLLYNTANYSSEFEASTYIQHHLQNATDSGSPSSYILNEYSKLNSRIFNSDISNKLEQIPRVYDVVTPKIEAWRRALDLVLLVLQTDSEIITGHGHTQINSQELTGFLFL

Variants of: B1
Conditions: with bbs12_human BBS12, Q6ZW61

Row | Variant | effect of a mutation on the interaction
1 | MSRLEAKKPSLCKSEPLTTERVRTTLSVLKRIVTSCYGPSGRLKQLHNGFGGYVCTASQSSALLSHLLVTHPILKILTASIQNHVSSFSDCGLFTAILCCNLIENVQRLGLTPTTVIRLNKHLLSLCISYLKSETCGCRIPVDFSSTQILLCLVRSILTSKPACMLTRKETEHVSALILRAFLLTIPENAEGHIILGKSLIVPLKGQRVIDSTVLPGILIEMSEVQLMRLLPIKKSTALKVALFCTTLSGDTSDTGEGTVVVSYGVSLENAVLDQLLNLGRQLISDHVDLVLCQKVIHPSLKQFLNMHRIIAIDRIGVTLMEPLTKMTGTQPIGSLGSICPNSYGSVKDVCTAKFGSKHFFHLIPNEATICSLLLCNRNDTAWDELKLTCQTALHVLQLTLKEPWALLGGGCTETHLAAYIRHKTHNDPESILKDDECTQTELQLIAEAFCSALESVVGSLEHDGGEILTDMKYGHLWSVQADSPCVANWPDLLSQCGCGLYNSQEELNWSFLRSTRRPFVPQSCLPHEAVGSASNLTLDCLTAKLSGLQVAVETANLILDLSYVIEDKN [T57A] | disrupting interaction strength
2 | MSRLEAKKPSLCKSEPLTTERVRTTLSVLKRIVTSCYGPSGRLKQLHNGFGGYVCTTSQSSALLSHLLVTHPILKILTASIQNHVSSFSDCGLFTAILCCNLIENVQRLGLTPTTVIRLNKHLLSLCISYLKSETCGCRIPVDFSSTQILLCLVRSILTSKPACMLTRKETEHVSALILRAFLLTIPENAEGHIILGKSLIVPLKGQRVIDSTVLPGILIEMSEVQLMRLLPIKKSTALKVALFCTTLSGDTSDTGEGTVVVSYGVSLENAVLDQLPNLGRQLISDHVDLVLCQKVIHPSLKQFLNMHRIIAIDRIGVTLMEPLTKMTGTQPIGSLGSICPNSYGSVKDVCTAKFGSKHFFHLIPNEATICSLLLCNRNDTAWDELKLTCQTALHVLQLTLKEPWALLGGGCTETHLAAYIRHKTHNDPESILKDDECTQTELQLIAEAFCSALESVVGSLEHDGGEILTDMKYGHLWSVQADSPCVANWPDLLSQCGCGLYNSQEELNWSFLRSTRRPFVPQSCLPHEAVGSASNLTLDCLTAKLSGLQVAVETANLILDLSYVIEDKN [L277P] | decreasing interaction strength
3 | MSRLEAKKPSLCKSEPLTTERVRTTLSVLKRIVTSCYGPSGRLKQLHNGFGGYVCTTSQSSALLSHLLVTHPILKILTASIQNHVSSFSDCGLFTAILCCNLIENVQRLGLTPTTVIRLNKHLLSLCISYLKSETCGCRIPVDFSSTQILLCLVRSILTSKPACMLTRKETEHVSALILRAFLLTIPENAEGHIILGKSLIVPLKGQRVIDSTVLPGILIEMSEVQLMRLLPIKKSTALKVALFCTTLSGDTSDTGEGTVVVSYGVSLENAVLDQLLNLGRQLISDHVDLVLCQKVIHPSLKQFLNMHRIIAIDRIGVTLMEPLTKMTGTQPIGSLGSICPNSYGSVKDVCTAKFGSKHFFHLIPNEATICSLLLCNRNDTAWDELKLTCQTALRVLQLTLKEPWALLGGGCTETHLAAYIRHKTHNDPESILKDDECTQTELQLIAEAFCSALESVVGSLEHDGGEILTDMKYGHLWSVQADSPCVANWPDLLSQCGCGLYNSQEELNWSFLRSTRRPFVPQSCLPHEAVGSASNLTLDCLTAKLSGLQVAVETANLILDLSYVIEDKN [H395R] | decreasing interaction strength
